Target: Human IL-21 Receptor (human) (UniProt Q9HBE5)
Experiment: cell-based or functional assay

human IL-21-saporin immunotoxin conjugate (from UniProt P20656 25-277)
3H-thymidine incorporation of conjugate-treated MOLT-13 cells relative to IL-21 treated MOLT-13 cells: 70% | density of conjugate-treated DEL cells relative to untreated cells (3H-thymidine): 25% | density of conjugate-treated HuT-78 cells relative to untreated cells (3H-thymidine): 33% | density of conjugate-treated HuT-102 cells relative to untreated cells (3H-thymidine): 20% | density of conjugate-treated YT cells relative to untreated cells (3H-thymidine): 33% | growth inhibition of IM-9 cells at the maximal conjugate concentration (250 ng/ml), Alamar Blue proliferation assay: 79% | growth inhibition of RAMOS cells at the maximal conjugate concentration (250 ng/ml), Alamar Blue proliferation assay: 65%

— patent US20070059284A1
